Measured values published in US20220211858A1, “TUBULAR SUPRAMOLECULAR POLYMERS” (priority 2019, published 2022).
Where two headings read alike, the source gives them in different places.

Legend:
[1] = Zeta potential measurement; format: physicochemical
Method: TT solutions of 200 μM in 1×-DPBS buffer (pH=7.4) were prepared by directly mixing identical volumes of a 400 μM aqueous TT solution and 2×-DPBS buffer (pH=7.4). In some embodiments, solutions at a concentration of 2 mM in PBS buffer (pH=7.4) were prepared and aged overnight prior to zeta potential measurement. TT solutions of 200 μM in 1×-DPBS buffer (pH=5.0) were prepared by mixing identical volumes of a 400 μM aqueous TT solution and 2×-DPBS buffer (pH=5.0), which was pretreated with 6 M HCl. The zeta potential measurements were performed on a Zetasizer Nano ZS90 (Malvern Instruments Ltd., UK). The prepared solutions were loaded in capillary cells and equilibrated for 2 min prior to measurement. The average values and their standard deviations are calculated from three replicate measurements. The zeta potential of the assembled structures was obtained by measuring the electrophoretic movement of the nanostructures under the applied electric field, where the movement velocity is determined by phase analysis light scattering. Variations of the zeta potential value over time were determined by measuring the solutions at different aging time points (1, 2, 4 and 7 days) and are plotted in FIG. 10.

[2] = Drug release of SAPDs in rat plasma; format: in vitro ADME; conditions: without GSH, read-out: remaining drugs
Method: The drug release in rat plasma (10%, v/v) were performed using similar protocols as those in PBS. To determine the amount of SAPDs and free CPT in each sample, 50 μL of sample was mixed with 200 μL acetonitrile (containing 0.1% TFA) and sonicated for 1 min. The supernatants were collected using centrifugation. All samples were filtered through a 0.22 μm membrane before analysis by a UPLC system (Waters ACQuity™ Ultra Performance LC) equipped with a reverse-phase column (ACQuity UPLC@BEH, C18, 1.7 μm 2.1×150 mm) and a fluorescence detector (ACQuity FLR, Ex/Em=362/430 nm). The column was flushed with a mixture of water (0.1% TFA) and acetonitrile (0.1% TFA) at 0.3 mL/min with the following gradient: 5% acetonitrile (0-1 min), 5-95% acetonitrile (1-5 min), 95% acetonitrile (5-8 min), 95-5% acetonitrile (8-9 min), and 5% acetonitrile (9-10 min). Peaks of SAPDs and free CPT were monitored and recorded, and the concentrations were calculated by comparing with standard curves.

[3] = TEM / cryo-TEM imaging of self-assembled nanostructures (dimensions); format: physicochemical; conditions: 2 mM in water
[4] = Critical micellization concentration (CMC) via Nile Red encapsulation; format: physicochemical; conditions: SAPDs, PBS buffer, Nile Red method
Method: Nile Red is a hydrophobic, solvatochromic dye that fluoresces intensely upon exposure to hydrophobic environments compared with its strongly quenched and red-shifted fluorescence in aqueous environments. The CMC of the TTs was determined by incubating these molecules at various concentrations with a fixed content of Nile Red. 10 μL of a 1 mM Nile Red stock solution in acetone was added to each microcentrifuge tube to be used, with the acetone allowed to evaporate in a dark area. TT solutions of various concentrations were subsequently added to the Nile Red containing tubes and equilibrated overnight. The emission spectrum for each sample was then recorded on a Fluorolog spectrofluorometer (Horiba Jobin Yvon Inc., Edison, N.J.), acquiring between 580 and 720 nm with an excitation wavelength of 550 nm.
CMC Measurement of SAPDs of TT1. We next assessed the CMC values for each of the designed SAPDs in aqueous solution. […] Experimentally, the CAC is often measured using spectrometry techniques such as circular dichroism (CD) to reveal the presence of intermolecular associations and packing at a much lower concentration. In the case reported here, the CMC values were measured in the PBS buffer using Nile Red as a probe, which fluoresces intensely in hydrophobic environments and is strongly quenched and red-shifted in aqueous media. […]

[5] = Drug release and chemical stability of SAPDs in PBS with or without GSH; format: physicochemical; conditions: for prodrug degraded / conjugates remaining intact: 200 μM; for prodrug degraded: 37° C., 10 mM GSH, within 5 min; for conjugates remaining intact / remaining drugs: without GSH; for conjugates remaining intact: 120 h; for remaining drugs: 96 h
Method: Drug release and chemical stability studies of SAPDs. Drug release studies of four SAPDs were performed at a concentration of 200 μM in PBS buffer with or without the reducing agent glutathione (GSH). Briefly, 400 μM stock solutions of SAPDs in water were prepared and aged overnight. Stock solutions containing 2×PBS (20 mM) with or without 20 mM GSH were prepared 1 h before the experiment, and the pH was tuned to 7.4 with NaOH. The prodrug solutions were further diluted to 200 μM with 20 mM (2×) PBS buffer with or without GSH (20 mM) to give final solutions of 200 μM prodrug, 10 mM PBS and with or without 10 mM GSH. Three replicates of each SAPD were prepared with or without GSH and were incubated at 37° C. Samples with GSH were collected at 0 min, 5 min, 10 min, 15 min, 30 min, 1 h and 2 h, while samples without GSH were collected at 0 h, 6 h, 12 h, 24 h, 48 h, 72 h, 96 h and 120 h. To prevent further reaction after sample collection, the collected samples (50 μL each point) were acidified by adding 0.2 μL of 2M HCl, frozen with liquid nitrogen and stored at −30° C. The release profile was determined by analytical RP-HPLC using the following conditions: Varian Pursuit XRs C18 (5 μm, 150×4.6 mm); 362 nm detection wavelength; 1 mL/min flow rate; the gradient began at 15% to 85% acetonitrile containing 0.1% TFA by 15 min and back to initial gradient at 18 min. The calculated data points were plotted as a percentage of the total CPT concentration against time. Representative HPLC traces over time were also integrated for comparison.

CC[C@]1(OC(=O)OCCSSC[C@@H](NC(C)=O)C(=O)N[C@@H](CCCCNC(=O)[C@@H](CSSCCOC(=O)O[C@]2(CC)C(=O)OCc3c2cc2n(c3=O)Cc3cc4ccccc4nc3-2)NC(C)=O)C(=O)N[C@@H](CCCCNC(=O)CCOCCOCCOCCOCCOC)C(=O)N[C@@H](CCCCNC(=O)CCOCCOCCOCCOCCOC)C(=O)N[C@@H](CCCCNC(=O)CCOCCOCCOCCOCCOC)C(=O)N[C@@H](CCCCNC(=O)CCOCCOCCOCCOCCOC)C(N)=O)C(=O)OCc2c1cc1n(c2=O)Cc2cc3ccccc3nc2-1 [SAPD 2]
ζ-Potential ([1]; assembled SAPDs in PBS buffer): −7.4 mV | remaining at 96 h ([2]; rat plasma (10%, v/v)): 78% | length of filaments (majority) [3]: less than 400 nm | CMC [4]: 10.1 µM | prodrug degraded [5]: 45% | conjugates remaining intact [5]: 87% | remaining drugs [5]: 86%

CC[C@]1(OC(=O)OCCSSC[C@@H](NC(C)=O)C(=O)N[C@@H](CCCCNC(=O)[C@@H](CSSCCOC(=O)O[C@]2(CC)C(=O)OCc3c2cc2n(c3=O)Cc3cc4ccccc4nc3-2)NC(C)=O)C(=O)N[C@@H](CCCCNC(=O)CCOCCOCCOCCOCCOC)C(=O)N[C@@H](CCCCNC(=O)CCOCCOCCOCCOCCOC)C(N)=O)C(=O)OCc2c1cc1n(c2=O)Cc2cc3ccccc3nc2-1 [TT 1]
ζ-Potential ([1]; 1×-DPBS buffer, pH 5.0, 200 μM): −5 mV | ζ-Potential ([1]; 1×-DPBS buffer, pH 7.4, 200 μM): −5 mV | ζ-Potential ([1]; assembled SAPDs in PBS buffer): −6.5 mV | remaining at 96 h [2]: 89% | diameter of supramolecular filaments [3]: around 9 nm | CMC [4]: 2.7 µM | prodrug degraded [5]: 8% | conjugates remaining intact [5]: 96% | remaining drugs [5]: 95%

CC[C@]1(OC(=O)OCCSSC[C@@H](NC(C)=O)C(=O)N[C@@H](CCCCNC(=O)[C@@H](CSSCCOC(=O)O[C@]2(CC)C(=O)OCc3c2cc2n(c3=O)Cc3cc4ccccc4nc3-2)NC(C)=O)C(=O)N[C@@H](CCCCNC(=O)CCOCCOCCOCCOCCOC)C(=O)N[C@@H](CCCCNC(=O)CCOCCOCCOCCOCCOC)C(=O)N[C@@H](CCCCNC(=O)CCOCCOCCOCCOCCOC)C(=O)N[C@@H](CCCCNC(=O)CCOCCOCCOCCOCCOC)C(=O)N[C@@H](CCCCNC(=O)CCOCCOCCOCCOCCOC)C(=O)N[C@@H](CCCCNC(=O)CCOCCOCCOCCOCCOC)C(=O)N[C@@H](CCCCNC(=O)CCOCCOCCOCCOCCOC)C(=O)N[C@@H](CCCCNC(=O)CCOCCOCCOCCOCCOC)C(N)=O)C(=O)OCc2c1cc1n(c2=O)Cc2cc3ccccc3nc2-1 [SAPD 4]
ζ-Potential ([1]; assembled SAPDs in PBS buffer): −5.9 mV | remaining at 96 h ([2]; rat plasma (10%, v/v)): 18% | prodrug degraded [5]: 92% | remaining drugs [5]: 61%

CC[C@]1(OC(=O)OCCSSC[C@@H](NC(C)=O)C(=O)N[C@@H](CCCCNC(=O)[C@@H](CSSCCOC(=O)O[C@]2(CC)C(=O)OCc3c2cc2n(c3=O)Cc3cc4ccccc4nc3-2)NC(C)=O)C(=O)N[C@@H](CCCCNC(=O)CCOCCOCCOCCOCCOC)C(=O)N[C@@H](CCCCNC(=O)CCOCCOCCOCCOCCOC)C(=O)N[C@@H](CCCCNC(=O)CCOCCOCCOCCOCCOC)C(=O)N[C@@H](CCCCNC(=O)CCOCCOCCOCCOCCOC)C(=O)N[C@@H](CCCCNC(=O)CCOCCOCCOCCOCCOC)C(=O)N[C@@H](CCCCNC(=O)CCOCCOCCOCCOCCOC)C(N)=O)C(=O)OCc2c1cc1n(c2=O)Cc2cc3ccccc3nc2-1 [SAPD 3]
ζ-Potential ([1]; assembled SAPDs in PBS buffer): −6.5 mV | remaining at 96 h ([2]; rat plasma (10%, v/v)): 15% | prodrug degraded [5]: 93% | remaining drugs [5]: 63%
